The record followed here is publication PMC11480844 (2024).

To fix the notation:
B1: H2-Kb / Ed39 (parent complex)
chain 1: GEQVEQRPPHLSVREGDSAVIICTYTDPNSYYFFWYKQEPGAGLQLLMKVFSSTEINEGQGFTVLLNKKDKQLSLNLTAAHPGDSAVYFCATMSNYNVLYFGSGTKLTVEP
chain 2: GALVYQYPRRTICKSGTSMRMECQAVGFQATSVAWYRQSPQKTFELIALSTVNSAIKYEQNFTQEKFPISHPNLSFSSMTVLNAYLEDRGLYLCGARDGSYEQYFGPGTRLTVL
chain 3: not shown
chain 4: IQKTPQIQVYSRHPPENGKPNILNCYVTQFHPPHIEIQMLKNGKKIPKVEMSDMSFSKDWSFYILAHTEFTPTETDTYACRVKHDSMAEPKTVYWDRDM
chain 5: SIINFEKL
B2: H2-Kb / Ed8 (parent complex)
chain 1: AQSVTQPDARVTVSEGASLQLRCKYSYFGTPYLFWYVQYPRQGLQLLLKYYPGDPVVQGVNGFEAEFSKSNSSFHLRKASVHWSDWAVYFCAVSPGSGGKLTLGAGTRLQVNL
chain 2: DSGVVQSPRHIIKEKGGRSVLTCIPISGHSNVVWYQQTLGKELKFLIQHYEKVERDKGFLPSRFSVQQFDDYHSEMNMSALELEDSAMYFCASSPRASNYTFGSGTRLLVI
chain 3: not shown
chain 4: B1 chain 4
chain 5: SIINFEKL
Note: test concentration or dose not given here.

In the first experiment the parent is B1. As to the kind of experiment: % of reporter cells activated (NFAT-GFP), raw.
For chain 5 F5V, the ratio to parent was determined as 0.821.

Take chain 5 F5M: the ratio to parent was determined as 1.01.

For chain 5 F5I, the ratio to parent turned out to be 0.622.

On to chain 5 F5A, for which the ratio to parent worked out at 0.973.

As to chain 5 F5E, the ratio to parent was determined as 0.259.

As for chain 5 F5D, the ratio to parent came out at 0.358.

chain 5 E6N: the ratio to parent was determined as 0.00523.

chain 5 E6H: the ratio to parent amounted to 0.0355.

For the variant chain 5 E6D, the ratio to parent was 0.265.

For the variant chain 5 E6C, the ratio to parent turned out to be 0.0124.

For chain 5 E6A, the ratio to parent was determined as 0.0073.

Regarding chain 5 E6Y, the ratio to parent came to 0.0117.

For chain 5 E6R, the ratio to parent was determined as 0.00443.

Regarding chain 5 E6Q, the ratio to parent came to 0.0946.

As for chain 5 E6I, the ratio to parent was 0.00482.

As to chain 5 E6T, the ratio to parent was 0.034.

In the case of chain 5 I2Q, the ratio to parent came out at 0.366.

As to chain 5 I2D, the ratio to parent came to 0.612.

For the variant chain 5 I2V, the ratio to parent came out at 1.09.

As to chain 5 I2Y, the ratio to parent turned out to be 0.284.

chain 5 I2A: the ratio to parent came out at 0.954.

chain 5 I2H: the ratio to parent stood at 0.244.

Consider chain 5 I2R, for which the ratio to parent was 0.593.

On to chain 5 N4C, for which the ratio to parent stood at 0.0192.

chain 5 N4Y: the ratio to parent turned out to be 0.0203.

Regarding chain 5 N4P, the ratio to parent amounted to 0.174.

chain 5 N4S: the ratio to parent was found to be 0.0741.

Regarding chain 5 N4K, the ratio to parent was 0.0498.

As to chain 5 N4W, the ratio to parent worked out at 0.127.

With chain 5 N4L, the ratio to parent is 0.196.

As to chain 5 N4V, the ratio to parent was 0.00191.

Turning to chain 5 N4T, the ratio to parent came to 0.00203.

As for chain 5 S1W, the ratio to parent turned out to be 0.0114.

On to chain 5 S1T, for which the ratio to parent came to 0.00457.

For the variant chain 5 S1C, the ratio to parent is 0.0621.

With chain 5 S1A, the ratio to parent amounted to 0.0073.

Turning to chain 5 S1D, the ratio to parent stood at 0.00365.

chain 5 S1Q: the ratio to parent came out at 0.00347.

Take chain 5 S1P: the ratio to parent is 0.00622.

For the variant chain 5 S1E, the ratio to parent was found to be 0.00392.

For the variant chain 5 K7F, the ratio to parent was determined as 0.0761.

Consider chain 5 K7I, for which the ratio to parent stood at 0.0214.

For the variant chain 5 K7L, the ratio to parent was 0.408.

Regarding chain 5 K7A, the ratio to parent was found to be 0.112.

As for chain 5 I3N, the ratio to parent stood at 0.314.

In the case of chain 5 I3D, the ratio to parent is 0.402.

chain 5 I3R: the ratio to parent stood at 0.0638.

On to chain 5 I3Y, for which the ratio to parent amounted to 0.0404.

Consider chain 5 I3V, for which the ratio to parent was 0.956.

Take chain 5 I3F: the ratio to parent was determined as 0.0488.

chain 5 I3P: the ratio to parent stood at 0.293.

On to chain 5 I3C, for which the ratio to parent was 0.431.

Take chain 5 L8N: the ratio to parent stood at 0.884.

Regarding chain 5 L8W, the ratio to parent is 0.468.

In the case of chain 5 L8P, the ratio to parent came out at 0.453.

On to chain 5 L8D, for which the ratio to parent is 0.425.

As to chain 5 L8K, the ratio to parent is 0.485.

As for chain 5 L8E, the ratio to parent was 0.361.

Take chain 5 L8Q: the ratio to parent worked out at 0.617.

In the next experiment the parent is B2. Briefly: % of reporter cells activated (NFAT-GFP), raw.
On to chain 5 S1K, for which the ratio to parent was found to be 1.02.

chain 5 S1F: the ratio to parent is 1.25.

As to chain 5 S1E, the ratio to parent is 1.28.

chain 5 S1A: the ratio to parent worked out at 1.28.

Turning to chain 5 S1Y, the ratio to parent was determined as 1.16.

For the variant chain 5 S1I, the ratio to parent was 0.983.

On to chain 5 S1H, for which the ratio to parent worked out at 1.3.

On to chain 5 S1D, for which the ratio to parent stood at 1.12.

For chain 5 S1R, the ratio to parent turned out to be 0.799.

Turning to chain 5 S1C, the ratio to parent amounted to 1.03.

As to chain 5 S1N, the ratio to parent came out at 0.821.

Regarding chain 5 I2H, the ratio to parent was 1.13.

With chain 5 I2M, the ratio to parent turned out to be 1.2.

As for chain 5 I2A, the ratio to parent came to 1.41.

Turning to chain 5 I2P, the ratio to parent turned out to be 1.4.

For the variant chain 5 I2T, the ratio to parent was 1.43.

On to chain 5 I2V, for which the ratio to parent was 1.41.

Consider chain 5 I2F, for which the ratio to parent is 1.25.

For chain 5 I2G, the ratio to parent turned out to be 1.3.

Take chain 5 I2S: the ratio to parent worked out at 1.37.

As to chain 5 L8M, the ratio to parent came to 1.13.

For the variant chain 5 L8E, the ratio to parent was 0.853.

Consider chain 5 L8S, for which the ratio to parent worked out at 0.945.

For chain 5 L8C, the ratio to parent came out at 1.04.

On to chain 5 L8H, for which the ratio to parent was 1.22.

On to chain 5 L8T, for which the ratio to parent was found to be 1.1.

Take chain 5 L8Q: the ratio to parent is 1.13.

For the variant chain 5 L8P, the ratio to parent turned out to be 1.21.

Regarding chain 5 L8R, the ratio to parent stood at 1.24.

In the case of chain 5 L8V, the ratio to parent was 0.877.

In the case of chain 5 L8G, the ratio to parent was determined as 1.2.

Take chain 5 L8Y: the ratio to parent was 1.16.

Turning to chain 5 L8N, the ratio to parent worked out at 1.06.

Turning to chain 5 L8K, the ratio to parent was 1.15.

Turning to chain 5 L8A, the ratio to parent was found to be 1.05.

As for chain 5 L8W, the ratio to parent turned out to be 0.95.

Regarding chain 5 E6I, the ratio to parent amounted to 0.00371.

Turning to chain 5 E6N, the ratio to parent came out at 0.733.

Turning to chain 5 E6H, the ratio to parent amounted to 0.573.

Take chain 5 E6Q: the ratio to parent worked out at 0.777.

On to chain 5 E6K, for which the ratio to parent came to 1.14.

As for chain 5 E6T, the ratio to parent was 0.127.

In the case of chain 5 E6D, the ratio to parent came to 1.13.

Turning to chain 5 E6G, the ratio to parent was 1.04.

chain 5 E6P: the ratio to parent stood at 0.27.

Regarding chain 5 E6S, the ratio to parent stood at 0.349.

chain 5 E6L: the ratio to parent worked out at 0.0522.

In the case of chain 5 E6F, the ratio to parent came out at 0.0912.

Regarding chain 5 K7A, the ratio to parent came out at 0.643.

In the case of chain 5 K7T, the ratio to parent was determined as 0.648.

On to chain 5 K7D, for which the ratio to parent was found to be 0.0673.

As to chain 5 K7N, the ratio to parent was found to be 0.809.

As to chain 5 K7Q, the ratio to parent was 0.662.

Take chain 5 K7R: the ratio to parent was 1.16.

With chain 5 K7Y, the ratio to parent came out at 0.958.

With chain 5 K7C, the ratio to parent stood at 0.326.

Consider chain 5 K7W, for which the ratio to parent was 0.826.

Consider chain 5 I3E, for which the ratio to parent amounted to 1.17.

Regarding chain 5 I3N, the ratio to parent is 1.32.

As for chain 5 I3S, the ratio to parent was 1.3.

Take chain 5 I3Q: the ratio to parent came out at 1.02.

With chain 5 I3D, the ratio to parent came out at 1.17.

In the case of chain 5 I3G, the ratio to parent worked out at 1.22.

In the case of chain 5 I3K, the ratio to parent stood at 1.03.

With chain 5 I3C, the ratio to parent was determined as 1.27.

Turning to chain 5 I3F, the ratio to parent is 0.98.

On to chain 5 I3W, for which the ratio to parent amounted to 1.03.

Turning to chain 5 I3Y, the ratio to parent was found to be 0.813.

chain 5 I3T: the ratio to parent stood at 1.34.

Regarding chain 5 I3M, the ratio to parent was 1.27.

For chain 5 I3V, the ratio to parent amounted to 1.26.

As for chain 5 F5N, the ratio to parent stood at 1.1.

In the case of chain 5 F5K, the ratio to parent was 1.02.

Regarding chain 5 F5Q, the ratio to parent came to 1.04.

Take chain 5 F5E: the ratio to parent is 0.932.

Take chain 5 F5M: the ratio to parent came to 1.25.

In the case of chain 5 F5A, the ratio to parent was 1.24.

Turning to chain 5 F5I, the ratio to parent was 0.895.

In the case of chain 5 F5Y, the ratio to parent was determined as 1.34.

chain 5 F5R: the ratio to parent turned out to be 1.19.

Take chain 5 F5H: the ratio to parent stood at 1.23.

chain 5 F5S: the ratio to parent is 1.21.

Consider chain 5 N4I, for which the ratio to parent worked out at 0.469.

For the variant chain 5 N4K, the ratio to parent came out at 0.721.

As for chain 5 N4D, the ratio to parent was found to be 0.436.

With chain 5 N4C, the ratio to parent is 0.0721.

Regarding chain 5 N4Y, the ratio to parent came out at 0.00468.

On to chain 5 N4G, for which the ratio to parent was determined as 0.0339.

Regarding chain 5 N4F, the ratio to parent is 0.015.

For chain 5 N4M, the ratio to parent was 0.00281.

Take chain 5 N4V: the ratio to parent worked out at 0.0175.
